The supplement of paper PMC9732359
± gives the uncertainty stated by the source.

Test: protein stability index of a GFP-peptide fusion (yeast GPS) (PSI 1-4); higher = more stable; sorted into four equal gates, so the index is relative within each strain
Procedure, shortened: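 For each peptide, the protein stability index sums the read frequency in every gate after multiplying it by the gate number. Read frequencies came from plasmids that were PCR-amplified from each gate and Illumina-sequenced, with reads assigned to strains by barcodes. The gates were four equal bins of GFP/Cherry fluorescence ratio applied to mid-log yeast in leucine-free medium carrying a pooled library of tiled 17-residue yeast protein peptides fused downstream of GFP on a Cherry-expressing plasmid.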

| Sequence | protein stability index (doa10∆) | protein stability index (pdr5∆) | protein stability index (san1∆) | protein stability index (ubr1∆) |
| --- | --- | --- | --- | --- |
| VRQLYKGKKYQPKDLRA [RPL35A] | 3.28 ± 0.21 | 3.17 ± 0.12 | 2.59 ± 0.098 | 2.92 ± 0.12 |
| KSKAEELTQVPSARQKY [UBP6] | 2.19 ± 0.14 | 2.81 ± 0.12 | 2.38 ± 0.14 | 2.37 ± 0.16 |
| IKEENDMENMADEQKRS [ARP7] | 3.54 ± 0.17 | 3.48 ± 0.15 | 3.24 ± 0.095 | 3.19 ± 0.24 |
| KDQYVPEVSALDLSRSN [RPS17A] | 2.16 ± 0.14 | 2.2 ± 0.1 | 2.02 ± 0.12 | 2.2 ± 0.065 |
| VASQSPHATATEKEPVP [SNF6] | 3.23 ± 0.11 | 3.06 ± 0.061 | 2.88 ± 0.15 | 3.35 ± 0.077 |
| YTYLYVRMLASPMLYKV [BRR2] | 1.13 ± 0.12 | 1.19 ± 0.21 | 1.22 ± 0.21 | 1.26 ± 0.11 |
| DSQDYILSINAIDYEPE [SMC1] | 3.25 ± 0.068 | 3.06 ± 0.058 | 3 ± 0.046 | 3.02 ± 0.038 |
| LNDTTEKSKALESEIAS [SMC2] | 3.53 ± 0.19 | 3.34 ± 0.14 | 3.43 ± 0.086 | 3.18 ± 0.086 |
| TDLPIETAAMASLALAH [RPN1] | 1.5 ± 0.046 | 1.66 ± 0.043 | 1.58 ± 0.063 | 1.43 ± 0.045 |
| NWRGREHWKVRNFKKAN [BRN1] | 3.43 ± 0.12 | 3.36 ± 0.12 | 3.52 ± 0.075 | 3.49 ± 0.1 |
| RDKKEKKQAQKQTKLRK [SMB1] | 3.43 ± 0.072 | 3.53 ± 0.072 | 3.25 ± 0.076 | 3.4 ± 0.045 |
| SVFDATSDPVMHKQLAY [RPN1] | 2.28 ± 0.11 | 2.17 ± 0.077 | 1.79 ± 0.14 | 1.96 ± 0.082 |
| AFLALVDAGIALNSMCA [RRP46] | 2.27 ± 0.096 | 2.69 ± 0.11 | 1.7 ± 0.08 | 2.59 ± 0.076 |
| PQQNKTPFSFGTANNNS [YJL041W/NSP1] | 3.28 ± 0.046 | 3.2 ± 0.038 | 3.12 ± 0.035 | 3.05 ± 0.034 |
| VMKDIYKVENVTLYWNN [ESC2] | 1.42 ± 0.088 | 1.62 ± 0.08 | 1.47 ± 0.11 | 1.73 ± 0.084 |
| KMEKKKSSSLSLESFMK [SNM1] | 3.06 ± 0.1 | 3.32 ± 0.12 | 2.93 ± 0.14 | 2.97 ± 0.084 |
| KYIALQVIVDIFSVHGN [YCG1] | 1.26 ± 0.081 | 1.36 ± 0.14 | 1.14 ± 0.14 | 1.75 ± 0.16 |
| SVVSMSNDVLKPETPKG [SIR2] | 3.01 ± 0.073 | 3.51 ± 0.11 | 3.25 ± 0.062 | 2.96 ± 0.052 |
| LVALKRNADELSSYQKK [PRE5] | 2.4 ± 0.048 | 2.43 ± 0.041 | 2.68 ± 0.043 | 2.28 ± 0.033 |
| LNRFNFQNTNTRSALKL [QCR2] | 2.71 ± 0.076 | 2.91 ± 0.069 | 2.83 ± 0.075 | 2.62 ± 0.074 |
| IIKLVEGLANDPENKVP [RPS12] | 2.01 ± 0.086 | 1.77 ± 0.065 | 2.25 ± 0.092 | 2.08 ± 0.09 |
| LKTADNRDRSFQLLEPL [PGD1] | 3.29 ± 0.058 | 3.38 ± 0.086 | 3.38 ± 0.039 | 3.18 ± 0.074 |
| TLPEKKQFDSIFNSNKA [SIR4] | 2.71 ± 0.042 | 2.77 ± 0.045 | 2.82 ± 0.034 | 2.8 ± 0.035 |
| PMVSVMKMDKSPTESYS [RPT2] | 1.64 ± 0.11 | 1.57 ± 0.088 | 1.11 ± 0.2 | 1.71 ± 0.093 |
| IPGGPKFEPLYPREEEE [PRP8] | 3.01 ± 0.11 | 2.78 ± 0.15 | 3.01 ± 0.11 | 2.91 ± 0.13 |
| FYMKKDAVEGVSECIIL [RPO31] | – | 3.07 ± 0.29 | 2.86 ± 0.14 | – |
